Assay [1] has as its target T1, human CD19 (human, UniProt P15391 20-556).
T1 construct: whole, on cells; also called Cluster of Differentiation 19; hPro1
T1 sequence (looked up): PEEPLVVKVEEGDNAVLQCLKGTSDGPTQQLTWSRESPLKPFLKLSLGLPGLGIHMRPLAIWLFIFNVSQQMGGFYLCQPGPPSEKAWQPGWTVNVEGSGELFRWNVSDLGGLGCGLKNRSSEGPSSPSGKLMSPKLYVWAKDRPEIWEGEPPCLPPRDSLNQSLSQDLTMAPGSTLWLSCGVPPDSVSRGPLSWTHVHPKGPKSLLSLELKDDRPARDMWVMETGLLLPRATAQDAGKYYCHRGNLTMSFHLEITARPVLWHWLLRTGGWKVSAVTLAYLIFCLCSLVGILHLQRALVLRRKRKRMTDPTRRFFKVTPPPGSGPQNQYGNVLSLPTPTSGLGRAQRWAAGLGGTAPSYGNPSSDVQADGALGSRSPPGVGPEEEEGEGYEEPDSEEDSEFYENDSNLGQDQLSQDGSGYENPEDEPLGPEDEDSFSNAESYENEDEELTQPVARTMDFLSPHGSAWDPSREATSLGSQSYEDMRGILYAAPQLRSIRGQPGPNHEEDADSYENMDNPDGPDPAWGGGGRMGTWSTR
The assay is described as follows: flow cytometry on CD19 transfected CHO-K1 cells, Scatchard analysis. The protocol:
The CD19 transfected CHO-K1 cells or Ramos cells were plated in a 96-well plates (BD) at a density of 5×10⁴ cells/well. Antibodies to be tested were serially diluted in the staining buffer (1×PBS/1% BSA) and incubated with cells at 4° C. for 1 hr.
The affinity of selected candidate antibodies were tested on CD19 transfected CHO-K1 cell by flow cytometry.
A general note: In flow cytometry, cells or beads pass a laser one at a time.

Assay [2] has as its target T1, human CD19. The experiment in a line: flow cytometry on Ramos cells. The protocol:
The Ramos cells were plated in 96-well U-bottom plates (BD) at a density of 1×10⁵ cells/well. The purified antibody were serially diluted in the staining buffer (1×PBS/1% BSA) and incubated with cells for 1 hr at 4° C. The cells were then washed twice with staining buffer (BSA/1×PBS). […] The cells were then washed twice and re-suspended in 100 μL staining buffer. The fluorescence intensity was measured by flow cytometry (BD Canto II) and analyzed by FlowJo.
Binding activity of the selected subclones were tested on Ramos cell by flow cytometry (FIG. 4).

Assay [3] deals with T1, human CD19. The assay is described as follows: cell-based or functional assay.
A further assay deals with T2, cynomolgus monkey CD19 (cynomolgus monkey, UniProt A0A2K5W8L9 20-557).
T2 construct: whole, on cells; also called cyno CD19; cPro1
T2 sequence: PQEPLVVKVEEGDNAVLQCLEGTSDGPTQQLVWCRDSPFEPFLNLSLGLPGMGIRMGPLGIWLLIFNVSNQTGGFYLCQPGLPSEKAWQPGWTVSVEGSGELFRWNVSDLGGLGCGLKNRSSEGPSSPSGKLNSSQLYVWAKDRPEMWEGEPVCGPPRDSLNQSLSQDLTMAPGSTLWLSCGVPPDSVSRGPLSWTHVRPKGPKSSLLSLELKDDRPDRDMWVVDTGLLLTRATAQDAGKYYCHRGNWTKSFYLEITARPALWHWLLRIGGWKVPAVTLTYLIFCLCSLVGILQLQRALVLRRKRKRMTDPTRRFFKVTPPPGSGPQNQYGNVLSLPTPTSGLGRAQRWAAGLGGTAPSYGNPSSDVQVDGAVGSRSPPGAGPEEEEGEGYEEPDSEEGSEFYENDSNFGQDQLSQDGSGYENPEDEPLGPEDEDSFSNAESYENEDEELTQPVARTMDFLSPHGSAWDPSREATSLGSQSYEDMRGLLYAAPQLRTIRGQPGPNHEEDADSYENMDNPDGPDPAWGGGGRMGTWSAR
The assay is described as follows: flow cytometry on cynomolgus CD19 transfected CHO-K1 cells. As for the experimental part: The cynomolgus CD19 transfected CHO-K1 cells were plated in 96-well U-bottom plates (BD) at a density of 1×10⁵ cells/well. The purified antibody were serially diluted in the staining buffer (1×PBS/1% BSA) and incubated with cells for 1 hr at 4° C. The cells were then washed twice with staining buffer (BSA/1×PBS). […] The cells were then washed twice and re-suspended in 100 μL staining buffer. The fluorescence intensity was measured by flow cytometry (BD Canto II) and analyzed by FlowJo.
The binding activity to cynomogus monkey CD19 of candidate antibodies was evaluated using cynomolgus monkey CD19 transfected CHO-K1 cell line (FIG. 5).

The target of assay [4] is T1, human CD19. The assay is described as follows: FACS on Ramos cells, Scatchard analysis. The protocol: KD was calculated using Scatchard Analysis.

These results are taken from patent publication US20200289563A1 (WUXI BIOLOGICS IRELAND, published 2020).

The Kd is a measure of binding affinity in units of concentration. In general, EC50 refers to the concentration giving half of the maximal effect.

B1: WBP7011-4.87.6 (antibody, V domains shown)
VH: QVQLQQSGAELVRPGSSVKISCKASGYAFSTYWMNWVKQRPGQGLEWIGQIYPGDDDTKYNGKFKGKASLTADKSSSTAYMQLISLTSEDSAVYFCARRYFRYDYWYSDVWGAGTTVTVTS
VL: DIQMTQTTSSLSASLGDRVTISCRASQDISNYLNWYQQKPDGTVKLLIYYTSRLHSGVPARFSGSGSGTDYSLTISNLEQEDIATYFCHQGNTLPLTFGAGTKLELK
B1: in the assay with human CD19 [1], the equilibrium dissociation constant (Kd) amounted to 0.0955 nM. The values for the half-maximal effective concentration (EC50) with human CD19 [2] and with cynomolgus monkey CD19 were 0.1 nM and 0.285 nM, respectively. For the same molecule, in the assay with human CD19 [3], the “EC50 of cell viability, Fab-Zap assay on Ramos cells (internalization)” value was 0.0085 nM.

B2: WBP7011_4.225.7 (antibody, mouse IgG2a, V domains shown)
VH: EIQLQQSGPELVKPGASVKVSCKASGYAFTSYNMYWVKQSHGKSLEWIGYIDPYNGDTTYNQKFKGKATLTVDKSSSTAYMHLNSLTSEDSAVYYCLTTAYAMDYWGQGTSVTVSS
VL: QIVLTQSPAIMSASLGEEITLTCSASSTVNYMHWYQQKSGTSPKLLIYSTSNLASGVPSRFSGSGSGTFYSLTIRSVEAEDAADYYCHQWSSYPYTFGGGTKLEIK
notes: also called W7011-4.225.7
Molecule B2 gave a Kd with human CD19 [1] of 0.735 nM. The half-maximal effective concentration (EC50) with human CD19 [2] was 0.45 nM; in the assay with cynomolgus monkey CD19, 1.77 nM. Moreover, the “EC50 of cell viability, Fab-Zap assay on Ramos cells (internalization)” value with human CD19 [3] was determined as 0.015 nM.

B3: WBP7011-4.87.6-z1-IgG1k (N-S) (antibody, V domains shown)
VH: QVQLVQSGAEVKKPGASVKVSCKASGYAFSTYWMNWVRQAPGQGLEWMGQIYPGDDDTKYSGKFKGRVTITADKSTSTAYMELSSLRSEDTAVYYCARRYFRYDYWYSDVWGQGTTVTVSS
VL: DIQMTQSPSSLSASVGDRVTITCRASQDISNYLNWYQQKPGKVPKLLIYYTSRLHSGVPSRFSGSGSGTDFTLTISSLQPEDVATYYCHQGNTLPLTFGQGTKLEIK
notes: human IgG1, kappa by its name
B3 had a Kd in the assay with human CD19 [4] of 0.25 nM.

B4: WBP7011-4.34.11-z1-m5-IgG1k (antibody, V domains shown)
VH: QVQLVQSGAEVKKPGSSVKVSCKASGYTFTDYVIHWVRQAPGQGLEWMGYFNPYNDGTEYNEKFKARVTITADKSTSTAYMELSSLRSEDTAVYYCARGPYYYGSSPFDYWGQGTTVTVSS
VL: DIVMTQTPLSLPVTPGEPASISCRSSQSLENSNHNTYINWYLQKPGQSPQLLIYRVSKRFSGVPDRFSGSGSGTDFTLKISRVEAEDVGVYYCHQVTHVPYTFGQGTKLEIK
notes: human IgG1, kappa by its name
In the assay with human CD19 [4], B4 gave a Kd of 0.23 nM.
